Numbering of substitutions follows the chain as printed. Numbered stars: 1 amine (or outer) side, 2 acyl side, 3 side chain; on linkers, the order of the positions; unused ones are H or OH. Square brackets hold non-standard residues; d marks the D form. Side chains are listed from the residue outwards. Ends that are not written are not given here. * marks the point of attachment. C20 diacid = O=C(O)CCCCCCCCCCCCCCCCCCC(=O)*; C18 diacid = O=C(O)CCCCCCCCCCCCCCCCC(=O)*; γGlu = O=C(O)[C@H](CCC(=O)[*:2])N[*:1]; αMeF = C[C@](N)(Cc1ccccc1)C(=O)O; αMeK = C[C@](N)(CCCCN)C(=O)O; Dab = NCC[C@H](N)C(=O)O; AEEA = NCCOCCOCC(=O)O; Aib = CC(C)(N)C(=O)O
B1: Example 304 (peptide)
peptide: YXEGTFTSDYSIXLDKKAQXEFIEYLIEGGPSSG
modifications: Aib2, αMeL13, K17 conjugated to (2-[2-(2-Amino-ethoxy)-ethoxy]-acetyl)2-(γ-Glu)-CO-(CH2)16-CO2H, Aib20, C-terminal amide (NH2)
B2: Example 306 (peptide)
peptide: B1 peptide with E28A
modifications: Aib2, αMeL13, K17 conjugated to (2-[2-(2-Amino-ethoxy)-ethoxy]-acetyl)2-(γ-Glu)-CO-(CH2)16-CO2H, Aib20, C-terminal amide (NH2)
B3: Example 318 (peptide)
peptide: Y[Aib]EGTFTSDYSILLDKK([AEEA-AEEA-γGlu-C20 diacid])AQ[Aib]EFIEYLIAGGPSSG-NH2
modifications: N-terminus assumed
SMILES: CC[C@H](C)[C@H](NC(=O)[C@H](CC(C)C)NC(=O)[C@H](Cc1ccc(O)cc1)NC(=O)[C@H](CCC(=O)O)NC(=O)[C@@H](NC(=O)[C@H](Cc1ccccc1)NC(=O)[C@H](CCC(=O)O)NC(=O)C(C)(C)NC(=O)[C@H](CCC(N)=O)NC(=O)[C@H](C)NC(=O)[C@H](CCCCNC(=O)COCCOCCNC(=O)COCCOCCNC(=O)CC[C@H](NC(=O)CCCCCCCCCCCCCCCCCCC(=O)O)C(=O)O)NC(=O)[C@H](CCCCN)NC(=O)[C@H](CC(=O)O)NC(=O)[C@H](CC(C)C)NC(=O)[C@H](CC(C)C)NC(=O)[C@@H](NC(=O)[C@H](CO)NC(=O)[C@H](Cc1ccc(O)cc1)NC(=O)[C@H](CC(=O)O)NC(=O)[C@H](CO)NC(=O)[C@@H](NC(=O)[C@H](Cc1ccccc1)NC(=O)[C@@H](NC(=O)CNC(=O)[C@H](CCC(=O)O)NC(=O)C(C)(C)NC(=O)[C@@H](N)Cc1ccc(O)cc1)[C@@H](C)O)[C@@H](C)O)[C@@H](C)CC)[C@@H](C)CC)C(=O)N[C@@H](C)C(=O)NCC(=O)NCC(=O)N1CCC[C@H]1C(=O)N[C@@H](CO)C(=O)N[C@@H](CO)C(=O)NCC(N)=O
B4: Example 298 (peptide)
peptide: Y[Aib]EGTFTSDYSILLDKK([AEEA-AEEA-γGlu-C18 diacid])AQ[Aib]AFVEYLIEGGPSSG-NH2
modifications: N-terminus assumed
SMILES: CC[C@H](C)[C@H](NC(=O)[C@H](CC(C)C)NC(=O)[C@H](Cc1ccc(O)cc1)NC(=O)[C@H](CCC(=O)O)NC(=O)[C@@H](NC(=O)[C@H](Cc1ccccc1)NC(=O)[C@H](C)NC(=O)C(C)(C)NC(=O)[C@H](CCC(N)=O)NC(=O)[C@H](C)NC(=O)[C@H](CCCCNC(=O)COCCOCCNC(=O)COCCOCCNC(=O)CC[C@H](NC(=O)CCCCCCCCCCCCCCCCC(=O)O)C(=O)O)NC(=O)[C@H](CCCCN)NC(=O)[C@H](CC(=O)O)NC(=O)[C@H](CC(C)C)NC(=O)[C@H](CC(C)C)NC(=O)[C@@H](NC(=O)[C@H](CO)NC(=O)[C@H](Cc1ccc(O)cc1)NC(=O)[C@H](CC(=O)O)NC(=O)[C@H](CO)NC(=O)[C@@H](NC(=O)[C@H](Cc1ccccc1)NC(=O)[C@@H](NC(=O)CNC(=O)[C@H](CCC(=O)O)NC(=O)C(C)(C)NC(=O)[C@@H](N)Cc1ccc(O)cc1)[C@@H](C)O)[C@@H](C)O)[C@@H](C)CC)C(C)C)C(=O)N[C@@H](CCC(=O)O)C(=O)NCC(=O)NCC(=O)N1CCC[C@H]1C(=O)N[C@@H](CO)C(=O)N[C@@H](CO)C(=O)NCC(N)=O
B5: Example 317 (peptide)
peptide: Y[Aib]EGTFTSDYSILLDKK([AEEA-AEEA-γGlu-C20 diacid])AQ[Aib]AFIEYLIAGGPSSG-NH2
modifications: N-terminus assumed
SMILES: CC[C@H](C)[C@H](NC(=O)[C@H](CC(C)C)NC(=O)[C@H](Cc1ccc(O)cc1)NC(=O)[C@H](CCC(=O)O)NC(=O)[C@@H](NC(=O)[C@H](Cc1ccccc1)NC(=O)[C@H](C)NC(=O)C(C)(C)NC(=O)[C@H](CCC(N)=O)NC(=O)[C@H](C)NC(=O)[C@H](CCCCNC(=O)COCCOCCNC(=O)COCCOCCNC(=O)CC[C@H](NC(=O)CCCCCCCCCCCCCCCCCCC(=O)O)C(=O)O)NC(=O)[C@H](CCCCN)NC(=O)[C@H](CC(=O)O)NC(=O)[C@H](CC(C)C)NC(=O)[C@H](CC(C)C)NC(=O)[C@@H](NC(=O)[C@H](CO)NC(=O)[C@H](Cc1ccc(O)cc1)NC(=O)[C@H](CC(=O)O)NC(=O)[C@H](CO)NC(=O)[C@@H](NC(=O)[C@H](Cc1ccccc1)NC(=O)[C@@H](NC(=O)CNC(=O)[C@H](CCC(=O)O)NC(=O)C(C)(C)NC(=O)[C@@H](N)Cc1ccc(O)cc1)[C@@H](C)O)[C@@H](C)O)[C@@H](C)CC)[C@@H](C)CC)C(=O)N[C@@H](C)C(=O)NCC(=O)NCC(=O)N1CCC[C@H]1C(=O)N[C@@H](CO)C(=O)N[C@@H](CO)C(=O)NCC(N)=O
B6: Example 3 (peptide)
peptide: YXEGTXTSDYSIXLDXKAQXEFIXYLIEGGPSSGAPPPS
modifications: Aib2, αMeF(2F)6, αMeL13, Orn16, K17 conjugated to (2-[2-(2-Amino-ethoxy)-ethoxy]-acetyl)2-(γ-Glu)-CO-(CH2)18-CO2H, Aib20, D-Glu24, C-terminal amide (NH2)
B7: Example 5 (peptide)
peptide: B6 peptide with Y10V, Y25X
modifications: Aib2, αMeF(2F)6, αMeL13, Orn16, K17 conjugated to (2-[2-(2-Amino-ethoxy)-ethoxy]-acetyl)2-(γ-Glu)-CO-(CH2)16-CO2H, Aib20, D-Glu24, αMeY25, C-terminal amide (NH2)
B8: Example 17 (peptide)
peptide: H[Aib]EGTFTSDYSILLDKIAQK([AEEA-AEEA-γGlu-C20 diacid])AFIEYLLE[Aib]GPSSG-NH2
modifications: N-terminus assumed
SMILES: CC[C@H](C)[C@H](NC(=O)[C@H](CCCCN)NC(=O)[C@H](CC(=O)O)NC(=O)[C@H](CC(C)C)NC(=O)[C@H](CC(C)C)NC(=O)[C@@H](NC(=O)[C@H](CO)NC(=O)[C@H](Cc1ccc(O)cc1)NC(=O)[C@H](CC(=O)O)NC(=O)[C@H](CO)NC(=O)[C@@H](NC(=O)[C@H](Cc1ccccc1)NC(=O)[C@@H](NC(=O)CNC(=O)[C@H](CCC(=O)O)NC(=O)C(C)(C)NC(=O)[C@@H](N)Cc1c[nH]cn1)[C@@H](C)O)[C@@H](C)O)[C@@H](C)CC)C(=O)N[C@@H](C)C(=O)N[C@@H](CCC(N)=O)C(=O)N[C@@H](CCCCNC(=O)COCCOCCNC(=O)COCCOCCNC(=O)CC[C@H](NC(=O)CCCCCCCCCCCCCCCCCCC(=O)O)C(=O)O)C(=O)N[C@@H](C)C(=O)N[C@@H](Cc1ccccc1)C(=O)N[C@H](C(=O)N[C@@H](CCC(=O)O)C(=O)N[C@@H](Cc1ccc(O)cc1)C(=O)N[C@@H](CC(C)C)C(=O)N[C@@H](CC(C)C)C(=O)N[C@@H](CCC(=O)O)C(=O)NC(C)(C)C(=O)NCC(=O)N1CCC[C@H]1C(=O)N[C@@H](CO)C(=O)N[C@@H](CO)C(=O)NCC(N)=O)[C@@H](C)CC
B9: Example 16 (peptide)
peptide: H[Aib]EGTFTSDYSILLDKK([AEEA-AEEA-γGlu-C20 diacid])AQ[Aib]AFIEYLIE[Aib]GPSSGAPPPS-NH2
modifications: N-terminus assumed
SMILES: CC[C@H](C)[C@H](NC(=O)[C@H](Cc1ccccc1)NC(=O)[C@H](C)NC(=O)C(C)(C)NC(=O)[C@H](CCC(N)=O)NC(=O)[C@H](C)NC(=O)[C@H](CCCCNC(=O)COCCOCCNC(=O)COCCOCCNC(=O)CC[C@H](NC(=O)CCCCCCCCCCCCCCCCCCC(=O)O)C(=O)O)NC(=O)[C@H](CCCCN)NC(=O)[C@H](CC(=O)O)NC(=O)[C@H](CC(C)C)NC(=O)[C@H](CC(C)C)NC(=O)[C@@H](NC(=O)[C@H](CO)NC(=O)[C@H](Cc1ccc(O)cc1)NC(=O)[C@H](CC(=O)O)NC(=O)[C@H](CO)NC(=O)[C@@H](NC(=O)[C@H](Cc1ccccc1)NC(=O)[C@@H](NC(=O)CNC(=O)[C@H](CCC(=O)O)NC(=O)C(C)(C)NC(=O)[C@@H](N)Cc1c[nH]cn1)[C@@H](C)O)[C@@H](C)O)[C@@H](C)CC)C(=O)N[C@@H](CCC(=O)O)C(=O)N[C@@H](Cc1ccc(O)cc1)C(=O)N[C@@H](CC(C)C)C(=O)N[C@H](C(=O)N[C@@H](CCC(=O)O)C(=O)NC(C)(C)C(=O)NCC(=O)N1CCC[C@H]1C(=O)N[C@@H](CO)C(=O)N[C@@H](CO)C(=O)NCC(=O)N[C@@H](C)C(=O)N1CCC[C@H]1C(=O)N1CCC[C@H]1C(=O)N1CCC[C@H]1C(=O)N[C@@H](CO)C(N)=O)[C@@H](C)CC

Each binder was assayed against human GLP-1 receptor (human, UniProt P43220 24-463) (assay: cell-based or functional assay).

Compared with B1, B2 is lower in “hGLP1R GTPgS % Top” value: 77.1% for the first, 76.1% for the second.

Compared with B3, B4 is lower in “hGLP1R GTPgS % Top” value: 58.4% for the first, 57.3% for the second.

Going from B5 to B6, the “hGLP1R GTPgS % Top” value rises from 53.7% to 95.4%.

With B7 the “hGLP1R GTPgS % Top” value was 91.3%.

B1 and B2 are within 1.5-fold of each other in “hGLP1R GTPgS Rel EC50” value: 561 pM for the first, 378 pM for the second.

Compared with B3, B4 is 2.5-fold higher in “hGLP1R GTPgS Rel EC50” value: 415 pM for the first, 1030 pM for the second.

B5 and B6 are within 1.5-fold of each other in “hGLP1R GTPgS Rel EC50” value: 536 pM for the first, 421 pM for the second.

B7 was tested, and the “hGLP1R GTPgS Rel EC50” value was 196 pM.

What follows are binders tested against T1, human GIP receptor (human, UniProt P48546 22-466) (assay: cell-based or functional assay).
T1 sequence (looked up): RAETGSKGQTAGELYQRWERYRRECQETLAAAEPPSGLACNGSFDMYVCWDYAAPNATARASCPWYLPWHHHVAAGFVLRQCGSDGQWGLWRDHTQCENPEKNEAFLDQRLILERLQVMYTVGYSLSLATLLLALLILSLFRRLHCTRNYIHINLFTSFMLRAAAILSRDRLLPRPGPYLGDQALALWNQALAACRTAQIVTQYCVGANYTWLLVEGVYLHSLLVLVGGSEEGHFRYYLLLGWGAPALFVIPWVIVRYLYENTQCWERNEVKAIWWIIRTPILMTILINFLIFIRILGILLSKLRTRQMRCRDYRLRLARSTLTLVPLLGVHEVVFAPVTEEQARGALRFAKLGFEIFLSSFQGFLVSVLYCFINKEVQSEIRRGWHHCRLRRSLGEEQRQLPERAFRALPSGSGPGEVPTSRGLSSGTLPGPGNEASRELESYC

Going from H[Aib]EGTFTSDYSI[αMeF]LDKK([Dab-AEEA-Dab-AEEA-C20 diacid])AQ[αMeK]AFIQYLLA[Aib]GPSSGAPPPS-NH2 [Example 19] to B8, the “hGIPR cAMP EC50 ratio” value falls from 0.436 to 0.0257.

Compared with H[Aib]EGTFTSDYSI[αMeF]LDKK([Dab-AEEA-Dab-AEEA-C20 diacid])AQ[αMeK]AFIQYLLA[Aib]GPSSGAPKPS-NH2 [Example 18], B9 is lower in “hGIPR cAMP EC50 ratio” value: 0.275 for the first, 0.157 for the second.

First: H[Aib]EGTFTSDYSI[αMeF]LDKK([Dab-AEEA-Dab-AEEA-C20 diacid])AQ[αMeK]AFIQYLLA[Aib]GPSSGAPPPS-NH2 [Example 19]
Second: B8
The “hGIPR cAMP Rel EC50” value of the first is 15-fold lower: 386 pM for the first, 5810 pM for the second.

Going from H[Aib]EGTFTSDYSI[αMeF]LDKK([Dab-AEEA-Dab-AEEA-C20 diacid])AQ[αMeK]AFIQYLLA[Aib]GPSSGAPKPS-NH2 [Example 18] to B9, the “hGIPR cAMP Rel EC50” value rises from 610 pM to 975 pM (1.6-fold).

Target: human GLP-1 receptor (human, UniProt P43220 24-463)
Experiment: cell-based or functional assay
Remark: another data set of the same source

Going from H[Aib]EGTFTSDYSI[αMeF]LDKK([Dab-AEEA-Dab-AEEA-C20 diacid])AQ[αMeK]AFIQYLLA[Aib]GPSSGAPPPS-NH2 [Example 19] to B8, the “hGLP1R cAMP EC50 ratio” value falls from 0.532 to 0.398.

Compared with H[Aib]EGTFTSDYSI[αMeF]LDKK([Dab-AEEA-Dab-AEEA-C20 diacid])AQ[αMeK]AFIQYLLA[Aib]GPSSGAPKPS-NH2 [Example 18], B9 is higher in “hGLP1R cAMP EC50 ratio” value: 0.589 for the first, 1.43 for the second.

H[Aib]EGTFTSDYSI[αMeF]LDKK([Dab-AEEA-Dab-AEEA-C20 diacid])AQ[αMeK]AFIQYLLA[Aib]GPSSGAPPPS-NH2 [Example 19] and B8 are within 1.5-fold of each other in “hGLP1R cAMP Rel EC50” value: 104 pM for the first, 152 pM for the second.

Going from H[Aib]EGTFTSDYSI[αMeF]LDKK([Dab-AEEA-Dab-AEEA-C20 diacid])AQ[αMeK]AFIQYLLA[Aib]GPSSGAPKPS-NH2 [Example 18] to B9, the “hGLP1R cAMP Rel EC50” value falls from 94.5 pM to 43.7 pM (2.2-fold).
